Source: IntAct's records for PubMed 24880343

B1: PAN2-PAN3 deadenylation complex catalytic subunit pan2 (Neurospora crassa (strain ATCC 24698 / 74-OR23-1A / CBS 708.71 / DSM 1257 / FGSC 987)), P0C581 (parent)
chain: MDSRDWTQLGCVAYPSPIHPDYHAGPASTIAFDNQDELLWIGTQKGFAGSFIGRELKRFTAFRIHPETDGPLRQFLFVDKGVIFLGSRSVYMAARSGVPIWSIRHESMQDLRAMSFTSKGTSEILVAGWQNKMLVIDVNKGEVVKELPTQDQYSFLKMSRYICAATNKGTVNILDPITFTIKKQWQAHGAFINDLDTSNDFIVTCGGSHRQTHNTPAILDPYVKVFDLKNMSAMNPVPFAPLAAHVRMHPRMLTTAIVVNQAGQIHVTDLLNPSNSQVCYTQPQGVVLHFDVSRTGEGKALADNKHNTYVWGSPNKIQFTEIGIPPRLPDPPQPSLLPPDPDMLEELPLSRIGLPYYREQLFSALPPDIISDVGAPPQQIDPNILSTLTKTDWGYIGPNKTGLQRNQYMDTRSTMKTSNTIRAPKFLSEKARESQTGSEDNTLATNETAMMTPNNDHWSLRPEAPPEYRICEIKYSKFGVDDFDFGFFNNTPYPGLENNITNSYANSLLQVMHYTPLLRNMALQHAATACLADPCLLCELGYVFDMLQKGEGPSCHATNMLRALNHTSNASVSGVLEDIAKDKNPSTLVKNLTMFLFDKISQDYKGTPPISTELERTLFKLNQPPNPLDLVKRLLETDARYQIKCMHCQHVSPRTATTFVNKLCYPAAKPNIRGMKAQRITFSQVLKAGLENEAVNKGYCTKCQRYQNLDQRKIIFNIPAVLALCTEITTAEHRKLWSTPGWLPEEIGIIVDQGHVYCYEGDDLKLHLNRGIHNITVYSLVGTVVNVETKSPQKSHLVATVNVGRAEPESKDQDRWHLFNDFSVRGISKVEALTFNAAWKMPVVVMFQVKAANHRFNMDWKTRLDTSVLFRDNNPHALKTYELLDRETEIPGPDTVIAIDTEFIRLKEREIHIDEDGKSKTIRPISHAIARASVVRGQGSREGVAFIDDYIHIKETIVDYLTEWSGITPTDLDPINSQRNLVSPKTAYKKLWVLVNLGCKFLGHGLSQDFRVINIQVPRNQVIDTSIIFMKPPSQRKISLAFLAWYLLKEDIQQNTHDSIEDAQTALKLYRKYEEFMANGSFHDVLEALYKKGKTLNFKPPRISTGAAKDAGFGAVHRVGTPPVPAPGTTEGSFEISNSSTATTGGSALSATGGMGSASASSSMPSTPVRKPIGLGGPFTVAGVVKPSPATSLDNFGAGAVGTGITTAAATMGGGYGGYGTDGAYWGGPNDMAPTSMIGGSAFIPAKFPPGPPETRGFIPYRPQVLLAEREAAAAAAAAAAAAAANNDVGGRGGVACGNGGAGGEQGKQE
partner: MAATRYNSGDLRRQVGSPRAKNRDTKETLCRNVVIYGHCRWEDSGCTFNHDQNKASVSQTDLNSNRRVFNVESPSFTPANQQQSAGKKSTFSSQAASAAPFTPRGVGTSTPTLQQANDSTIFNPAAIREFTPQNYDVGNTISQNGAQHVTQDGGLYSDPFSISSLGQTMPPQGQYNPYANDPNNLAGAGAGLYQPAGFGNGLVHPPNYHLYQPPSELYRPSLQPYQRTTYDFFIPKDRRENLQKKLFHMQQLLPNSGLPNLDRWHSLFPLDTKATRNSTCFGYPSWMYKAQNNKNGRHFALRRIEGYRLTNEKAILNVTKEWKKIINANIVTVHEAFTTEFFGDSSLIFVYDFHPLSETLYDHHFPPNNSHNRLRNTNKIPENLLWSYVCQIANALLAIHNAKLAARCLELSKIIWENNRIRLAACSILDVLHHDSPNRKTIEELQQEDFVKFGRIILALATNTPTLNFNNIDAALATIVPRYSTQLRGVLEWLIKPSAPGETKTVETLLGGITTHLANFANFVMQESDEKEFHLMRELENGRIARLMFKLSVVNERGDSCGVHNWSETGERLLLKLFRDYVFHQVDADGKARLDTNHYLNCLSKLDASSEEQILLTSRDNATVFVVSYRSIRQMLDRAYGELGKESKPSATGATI
B2: PAN2-PAN3 deadenylation complex subunit PAN3 (Drosophila melanogaster (Fruit fly)), Q95RR8 (parent)
chain: MCSTYGLLSFEFSDTAAMDPIFFSPTNGIPSESKLATYMNRQNVATPSGYGLNNGFSLLNLDSPLNKKSQVTPQSPEFIPTRLGSTPNFYAPYHNAPMQLSNGLNGVNGLTAAAAAAAAAAAAAAAAVPSSTSSASSASVTISKTANGGASMLALQKTASIASVTIAQQQPQHPQKQQQHPPSVGGGAVSAASAPIAISGAPPNPAAAPFVSSMSAQTPLKGRGAMMRQESPTAAMISGAGPGEKSPPHGMTPHGASPIPSALPTSVHQENVGGTIYFYPTANAQNSQPVVNSMVVDGTHPALHGVSAVAPMSAGVPAAMMYTGHVYPGPSSNVVTMQPKTLLESAFFMPDEMRAEVLARNEISNLIMDAAEAAQHALPLEVENYHALYPLEPPAQPLHAKLTFPATTYRATHNTTGYKYCLRRIHGFRLQSTKCMTLVEMWKKLQHTNVVQLREVFTTKAFGDNSLVLVYDYHPGSQTLLAKYFTPAPETNGYTDPFQGEARPFSHKSNMQRTSNGPLLPEATIWSIIMQLTAGLKAIHHAGLACKVLDPTKIIVTGKRVRFSSCCISDITQFDPNASNPLALVNMHQQDDLTALGRLVLALACRCLQSVQRDNVQSSIDMVTRNYSTDLRNFIVYLFTTNNRRSVTDLMPMIGARFYTQLDALQSKIDMQEDELAKEMENGRLYRILVKLNSINERPDFNLDCTWSETGDRYMLKLFRDYLFHSVTEDGRPWLDHAHIVQCLNKLDAGSIERVQLMSRDEQSVLIVSYAELKNCLENAFSELMSSAAN
B3: PAN2-PAN3 deadenylation complex subunit pan3 (Neurospora crassa (strain ATCC 24698 / 74-OR23-1A / CBS 708.71 / DSM 1257 / FGSC 987)), Q7SDP4 (parent)
chain: B1 partner
partner: B1 chain

Variants of: B1
Conditions: with pan3_neucr par-2, Q7SDP4

Variant	effect of a mutation on the interaction
T60R	disrupting interaction strength
P99R	disrupting interaction strength
F62E	disrupting interaction strength
G97E	disrupting interaction strength

Variants of: B2
Conditions: with pan2_drome PAN2, A1Z7K9
Chain of pan2_drome PAN2, A1Z7K9 (A1Z7K9 whole entry): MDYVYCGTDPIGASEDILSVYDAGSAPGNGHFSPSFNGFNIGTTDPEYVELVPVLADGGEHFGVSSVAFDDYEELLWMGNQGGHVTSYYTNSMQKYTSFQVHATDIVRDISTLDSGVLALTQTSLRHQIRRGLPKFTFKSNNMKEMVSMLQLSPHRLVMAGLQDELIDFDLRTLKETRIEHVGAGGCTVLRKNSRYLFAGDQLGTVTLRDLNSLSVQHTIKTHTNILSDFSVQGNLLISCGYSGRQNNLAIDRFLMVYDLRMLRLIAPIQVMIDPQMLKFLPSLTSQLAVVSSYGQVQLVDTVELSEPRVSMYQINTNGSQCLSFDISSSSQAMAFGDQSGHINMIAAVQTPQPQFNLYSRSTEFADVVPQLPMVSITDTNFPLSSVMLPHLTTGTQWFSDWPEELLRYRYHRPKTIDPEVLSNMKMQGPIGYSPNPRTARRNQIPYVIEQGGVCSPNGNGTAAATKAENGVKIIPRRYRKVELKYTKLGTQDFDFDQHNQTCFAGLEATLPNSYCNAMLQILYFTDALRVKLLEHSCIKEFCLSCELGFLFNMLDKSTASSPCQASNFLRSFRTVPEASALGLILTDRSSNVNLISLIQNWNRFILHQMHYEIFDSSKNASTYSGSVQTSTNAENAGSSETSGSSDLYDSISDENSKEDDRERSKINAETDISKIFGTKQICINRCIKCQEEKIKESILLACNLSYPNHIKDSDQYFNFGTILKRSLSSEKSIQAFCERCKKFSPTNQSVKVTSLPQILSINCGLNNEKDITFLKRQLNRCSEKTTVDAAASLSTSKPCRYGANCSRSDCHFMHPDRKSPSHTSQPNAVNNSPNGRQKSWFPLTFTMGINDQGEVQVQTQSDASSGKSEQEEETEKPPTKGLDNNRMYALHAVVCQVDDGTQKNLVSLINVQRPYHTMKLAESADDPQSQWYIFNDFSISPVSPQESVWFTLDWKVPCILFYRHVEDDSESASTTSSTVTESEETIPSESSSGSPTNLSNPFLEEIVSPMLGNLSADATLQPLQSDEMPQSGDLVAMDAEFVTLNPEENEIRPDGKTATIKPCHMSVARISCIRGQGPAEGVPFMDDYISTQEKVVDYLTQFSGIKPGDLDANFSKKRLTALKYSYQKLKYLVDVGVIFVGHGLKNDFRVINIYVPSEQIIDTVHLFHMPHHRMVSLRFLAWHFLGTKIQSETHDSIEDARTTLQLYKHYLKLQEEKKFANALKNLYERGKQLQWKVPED

Variant	effect of a mutation on the interaction
W707A;G711E;Y722A;H739A;R754A	decreasing interaction strength
Y722A;H739A;R754A	decreasing interaction strength

Variants of: B3
Conditions: with pan2_neucr par-1, P0C581

Variant	effect of a mutation on the interaction
V627E	disrupting interaction strength
